Two molecules from PMC5551578 (The Journal of Experimental Medicine, 2017) can be followed below.

For the test, the target named is T1, H1N1 HA (A/New Caledonia/20/1999), wild type (Influenza A virus A/New …, UniProt Q6WG00, strain).
T1 construct: also called H1 wt; source: provided by D. Lingwood
Briefly: ELISA. A general note: ELISA stands for enzyme-linked immunosorbent assay.

B1: H5-Ab2 (antibody, V domains shown)
VH: EVQLVQSGAEVKKPGSSVKVSCRSSGGPFRSNAISWVRQAPGQGLEWMGGIIAVFGTVEYAQKFQGRVTITADDSRSTVYMELRSLRSDDTAFYYCASAHGYHNYGSRGYFVSWGQGTLVTVSS
VL: DIVMTQSPGTLSLSPGERATLSCRASQSVSSNYLAWYQQKLGQPPRLLIYGASSRATGIPDRFSGSGSGTDFTLTISRLEPEDYAVYYCQQYGSSPHTFGQGTKVEIK
For the molecule B1, the binding result was “binds”.

B2: H5-Ab4 (antibody, V domains shown)
VH: EVQLVESGGGAVQPGRSLRLSCAVSGFTFSSYGMNWVRQAPGKGLEWVAVISYDGSNTYYADSVKGRFTISRDDSKNTLFLQMNSLRADDTAVYYCAKDFQLRLLRYFDWLSSPFDHWGQGTLVTVSS
VL: DIQLTQSPGTLSLSPGERATLSCRASQSIRSNFLAWYQQTPGQGPRLLIYGASSRATGIPDRFSGSGSGTDFTLTISGLEPEDFAVYYCQQYASSPQTFGQGTKVEIK
Take B2: the binding result is listed as “binds”.
